From the nanobody polyreactivity screen of Harvey et al. (2022)

assay: yeast display, Sf9 membrane polyspecificity reagent, FACS + sequencing; frameworks hold sequencing errors
Outline: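 Galactose-induced (36–48 hours) yeast carrying a synthetic nanobody display library were exposed to 10% biotinylated, detergent-solubilized Sf9 membrane reagent at 4 °C for 1 hour. FACS followed streptavidin microbead enrichment, using low and high (top ~1%) gates for expression (anti-HA) and reagent binding (streptavidin). Colony PCR, MiSeq 2 × 250 sequencing and CDR-length filtering followed. Labels for polyreactivity reflect the gate of origin.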

Sequence | polyreactivity (PSR sort gate)
QVQLVESCGGLVQEGGSLRLSSAASGSIRYYALGWYRQAPGKESELVAAISSRGTNTYYADSVKGSITISRDNAKNTVYLQMKSQKPEDTAVYYCNAVVGLGYNYWGQGTQVSVSS | high polyreactivity
QVQLVESGGGLVQAGGSLRLSCAPSGSTLNVYAMGWYRQAPGKERELVAAIRWSGDTYYADSVKGRFTISRDNAKNTVYLQMNSLKPEDTAVYYCAADPGTTYWQRFDYWGQGTQVTVSS | low polyreactivity
QVHLVESGGGLVQAGGSLRLSCAASGRTFPYNAMGWYRQAPGKERELVDAISSGGSTNYADSVKGRFTISRDNAKNTVYLQMNSLKPEDTAVYYCATKYQRRPYRYSYWGQGTQVTVSS | low polyreactivity
QVQLVESGGGLVQAGGSLRLSSAAYGRTFRPYAMGWYRQAPGKERELVAAIDSSGTSTYYADSVKGRFTISLDNAKNTVYLQMNSLKPEDTAVYYCAAGSDPTGRRYDYWGQGTQVTVSS | low polyreactivity
QVQLVESGGGLDQAGGSLRLSCAASGLTFYYYAMGWYRQAPGKERELVAAITWRGVSTYYADSVKGRFTISRDNAKNTVYLQMNSLKPEDTAVYYCAAGWTSSRYDFWGQGTQVTVSS | high polyreactivity
QVQLVESGGGLVQSGGSLRLSCAASGGIFGINAMGWYRQAPGKEREFVAAITASGGTTYYADSVKGRFTISRDNAKNTVYLQMNRLKPEDTAVYYCAKRYRSYDYVWYEYWGQGTQVTVSS | high polyreactivity
QVQHVESGGGLVQAGGSLRLSCAASVRTLYYYAMGWSRQAPGKERELVAAISGGGRTYYADSVKGRFTISRDNAKNTVYLQMIILKPEDTAVYYCAARYRKSGLDNYWGQGTQVTVSS | high polyreactivity
QVQLVESGGGLVQAGGSLRLSCAASGSIFTANAMGWYRQAPGKERELVAAISRSGGRTYYADSVKGRFTISRDNAKNTVYLQMNSLKPEDTAVYYCNVGRFNTSGYDYWGQGTQVTVSS | high polyreactivity
QVQLVESGGGLVQAGGSLRLSCAASGLIFVQNAMGWYRQAPGKERELVAAISSRGTNTYYADSVKGRFTISRDNAKNTVYLQMNSLKPEDTAVYYCAKPLKTPRPNYDYWGQGTQVTVSS | low polyreactivity
QVQLVESGGGLVQAGGSLRLSCAASGSIFRSNDMGWYRKAPGKERELVARITSSVGSTYYADSVKGRFTISRDNAKNTVYLQMNSLKPEVTAVYYCAKRYYHYPYGYRDYDYWGQGTQVTVSS | low polyreactivity
QVQLVESGGGLVQAGGSLRLSCAASGIIINTYLMGWYRQAPGKERELVAAISRRGGSTYYADSVKGRFTISRDNAKITVYLQMNSLKPEDTAFYYCAADVLYQQAGTYYWGQGTQVNVSS | high polyreactivity
QVQLVESGGGLVHAGGSLRLSCAASGNIFRYNAMGWYRQAPGKERELVAAISSVGTTNYADSVKGRFTISRDNAKNTVYLQMNSLKPEDSAVYYCAAVAFQGGYWYDYWGQGTQVTVSS | low polyreactivity
QVQLVESGGGLVQAGGSLRLSCAASGSTFRTNGMGWYRQAPGKERELVAAITRGTSTNYADSVKGRFTISRDNAKNTVYLQMNSLKPEDTAVYYCAADVTGGRKYDYWGQGTQVTVSS | low polyreactivity
QVQLVESGGGLVQAGGSLRLSCAASGFTFRRNAMGWYRKAPGKERELVAAISSSGGSTNYADSVKGRFTISRDNAKNTVYLQMNSLKPEDTAVYYCNRGSRRLGSIVWYDYWGQGTQVTVSS | high polyreactivity
QVQHVESGGGLVQAGRSLRLICAASGRTFSRYALGWSRQAPGKERELVASIRSGGSTNYADSVKGRFTISRDNAKNTVYLQMNSLKPEDSAVYYCAKRGRLRNYDYWGQGTQVTVSS | high polyreactivity
QVQLVESGGGLVQAGGSLRLSCAASGYIFLRNAKGWSRQAPGKERELVAAIRRTGGSTYYADSVKGRFTISRDIAKNTVYLDMNSLKPEDTAVYYCAKRSYTGYEYLGQGTQVTVSS | low polyreactivity
QVQLVESGGGLVQAGGSLRLSCAASGITFYTYTMGWYRQAPGKERELVAAISRSSGRTYYADSVKGRFTISRDNAKNTVYLQMNSLKPEDTAVYYCAAYAVESYKYDYWGQGTQVTVSS | high polyreactivity
QVQLVESGGGLVQAGGSLRLSCAATGSTFGGNAMGWYRQAPGKERELVAAISSSGGSTYYADSVKGRFTISRDNAKNTVYLQRNRLKPEDTAVYYCAALYHWTYDYWGQGTQVTVSS | low polyreactivity
QVQLVESGGGLVQAGGSLRLSCAASGSIFVHNAMGWSRQAPGKERELVAAITRGGSTYYADSVKGRFTISRDNAKNTVYLQMNSLKPEDTAVYYCAALAAWRWDLYDYWGQGTQVTVSS | low polyreactivity
QVQLVESGGGLVQAGGSLRLSCAASGFIFDRYAMGWYRQAPGKERELVAAIDTASSTNYADSVKGRFTISRDNAKNTVYLQMNSLKPEDTGVYYCNASGYYYVIYWKVSNYNYWGQGTQVTVSS | low polyreactivity
QVQHVESGGGLVQAGGSLRLSCAASGRTFPLNAMGWYRQAPGKERELVYAITWSGGRTYYADSVKGRFTISRDYAKNTVYLQMNSLKPEDTAVYYCAAKRTTWKIQSGYDYWGQGTQVTVSS | low polyreactivity
QVQLVESGGGLVQAGGSLRLSCAASGSTFQWYAMGWNIQAPGKERELVAGITRTGSTYYADSVKGRFTISRDNAKNTVYLQMNSLKPEDTAVYYCAAKWHTASGKYYYWGQVTQVTVSS | high polyreactivity

Sequence | polyreactivity (PSR sort gate)
QVQLVESGGGLVQAGGSLRLSCAASGLIFDYYAMGWYRQAPGKERELVAAISANTGRTYYADSVKGRFTISRDNAKNTVYLQMNSLKPEDTAVYYCAAYTQYDGAEFDYWGHGTQVTVSS | high polyreactivity
QVQLVESGGGLVQAGGSLRLSCAASGSIFNSYAMGWYRQAPGKERELVAAISRSGGRTYYADSVKGRFTISRDNAKNTVYLQMNSLKPEDTAVYYCAADAGSYLSYKAWARKMYYLGQGTQVTVSS | high polyreactivity
QVQLVESGGGLFQAGGSLRLSCAASGLIFRAYAMVWYRQSPGKERELVADITRSGGRTYYADSVKGRFTISRDNAKNTVYLQMNSLKPEDTAVYYCAAYVYSYWFYRGYEYWGQGTQVTVSS | high polyreactivity
QVQLVESGGGLVQAGGSLRLSCAASGRTFSHYAMGWSRQAPGKERELVAASNTRTGTTYYADSVKGRFTISRDNAKNTVNLQMNSLKPEDTAVYYCNAVPYYSYQGWILVGDYDYWGQGTQVTVSS | low polyreactivity
QVQLVESGGGLDHAGGPLRLSCAASGTIFAYYNMGWYRQPPGKERELVAGISKRGGNTYYADSVKGRFTISRDNAKNTVYLQMNSLKPEDTAVYYCNKRYSANTRGYYYWGQGTQVTVSS | high polyreactivity
QVQLVESGGGLVQAGGSLRLSCAASGRTFWVYAMGWYRQAPGKEREFVAAISGSVGSTYYADSVKGRFTISRDNAMKTVYLQMNSLKPEDTAVYYCAARQRRSEYGYWGQGTQVTVSS | high polyreactivity
QVQLVESGGGLVQAGGSLRLSCAASGSTFDSYRMGWYRQAPGKERELVASISSRGGSTYYADSVKGRFTISRDNAKNTVSLQMNSLKPEATAVYYCAADWLSWFHGYGMYYWGQGTQVTVSS | low polyreactivity
QVQLVESGGGLVQAGGSLRLSCAASGFTFGLYAMGWYRQAPGKERELVAAITSGGRTYYADSVKGRFTISRDNAKNTVYFQMNSLNPEDSAVYYCNADFFNAYLWYPGYESGFDYWGQCTQVTVSS | low polyreactivity
QVQLVESGGGLVQAGGSLRLSCAASGRTFQWNGMGWYRQAPGKERELVDTIRRGGSTNYADSVKGRFTISRDNAKNTVDLQMNSLKPEDTAVYYCAADRRYPGGWGFEYNYWGQGTQVTVSS | low polyreactivity
QVQLVESGGGLDQAGGSLRLSCAASGRNFTRYAMGWYRQAPGKERELVAVITRSGGSTYYADSVKGRFTISRDNAKNTVYLQMNSVKPEDTAVYYCDAKYYGEMYYWGQRTQVTVSS | low polyreactivity
QVQLVESGGGLVQAGGSLRLSCAASGYIFCKYAMGWYRQARGKERELVAGITRGGTTYYADSVKGRFTISRDNAKNTVYLQMNSLKPEVTAVYYCARDLLGVSSSRYNSWGQGTQVTVSS | high polyreactivity
QVQLVESGGGLVQAGGSLRLSCAASGIIFWWYAMGWYRQAPGKEMELVAAISGTGGSTYYADSVKGRFTISRDNAKNTVYLQMNSLKPEDTAFYYCAARGKSSSYYDYDYWGQGTQVTVSS | low polyreactivity
QVQLVESGGGLVQAGGSLRLSCAASGLNFKLYAMGWYRQAPGKEREFVATITGIGGSTYYADSVKGRFTISRDNAKNTVYLQMNSLKPEVTAVYYCAGDAWFLPYNYWGQGTQVTVSS | low polyreactivity
QVQLVESAGGLVQAGGSLSLSCAASGFIFDGYAMGWYRQAPGKERELVAAINFSGGSTYYADSVKGRFTISRDNAKNTVYLQMNSLKPEDTSVYYCNADLEWYWVQFGYGYWGQGTQVTVSS | low polyreactivity
QVQLVESGGGLVQAGGSLRLSCAASGRIFSGYAMGWYRQAPGKERELVAAITSVGSTNYADSVKGRFTISRDNAKNNVYLQMNSLKPEDTAVYYCAARSQSYYRYRSYGYWGQGTQVTVSS | high polyreactivity
QVQLVESGGGIVQAGGSLRLSCAASGRTFLQNAMGWYRQAPGKERELVATINYSGSSTYYADSVKGRFTISRDNAKKTVYLQMNSLKPEDTAVYYCNRDVPYRLVYYANYYRGQGTQVTVSS | low polyreactivity
QVQLVESGGGLVQAGGSLRFSCAASGIIFRIYAMGWYRQAPGKEREFVAAISGSGDSTYYADSVKGRFTISRDNAKNTVNLQMNSLKPEDSAVYYCAADWTLVYYHEDYWGQGSQVTVSS | low polyreactivity
QVQLVESGGGLVQAGGSLRLSCAASGSTFSTNAMGWYRQAPAKERELVAAISYSGGSTYYADSVKGRFTISRDNAKNTVYLQMLSLKPEDTAVYYCAADGYYYNSGGRYYEFYYWGQGTQVTVSS | low polyreactivity
QVQLVESGGGLVQAGGSLLLSCAASGFIFPPYDMGWYRQAPGKEMELVAGISDVGTTYYADSVKGRFTISRDNAKNTVYLQMNSLKPEDTAVYYCAAESQGDDQFWTGGYDSWGQGTQVTVSS | low polyreactivity
QVQLVESGGGLVQAGGSLRLSCAASGRTLAPYAMGWYRQAPGKERELVAISTIGGSTYYADSVKGRFTISRDNAKNTVFLQMNSLKPEDTAVYYCNADATDSYPEKDEHDSWGQGTQVTVSS | low polyreactivity
QVQLVESGGGLVQAGGSLRLSCAASGFTFLYNVMGWYRQAPGKERELVAAISQSGTDTYYADSVKGRFTISRDNAKYTVYLQMNSLKPEDTAVYYCAVDVYFYYRHYGYWGQGTQVTVSS | low polyreactivity
